Measured values: paper PMC7970865
Where “and” joins values, the source holds several entries; their conditions need not be identical. Equal entries are not always repeated.

How the values were obtained:
[1] = target: nearly full-length recombinant FL-CSP (Plasmodium falciparum) (UniProt Q7K740); experiment: BLI; Octet RED96; biotinylated FL-CSP or biotinylated NANPx6 on streptavidin biosensors, Fab in solution, kinetics buffer; global fit to 1:1 Langmuir model
[2] = target: nearly full-length recombinant FL-CSP (Plasmodium falciparum) (UniProt Q7K740); experiment: BLI; Octet RED384; FL-CSP amine-coupled to AR2G biosensors, bivalent mAb in solution, 1x kinetics buffer, 25 °C; 1:1 Langmuir model; mean of quadruplicate measurements
[3] = target: nearly full-length recombinant FL-CSP (Plasmodium falciparum) (UniProt Q7K740); experiment: ELISA
[4] = target: nearly full-length recombinant P. falciparum circumsporozoite protein (FL-CSP) (Plasmodium falciparum) (UniProt Q7K740); experiment: BLI

## Fab CIS43
[1]
  Kd: 2 nM
  koff: 4.8e-05 s⁻¹
  kon: 28000 M⁻¹ s⁻¹

## mAb CIS43 (antibody)
[2]
  Kd: 0.46 nM
  koff: 0.000692 s⁻¹
  kon: 1.5e+06 M⁻¹ s⁻¹
[3]
  ng/ml mAb needed for OD = 1: < 6 ng/mL

## mAb CIS43 (intact human IgG1) (antibody)
[4]
  kon: 1.4e+06 1/(M s) (2×) and 1.7e+06 1/(M s) and 1.6e+06 1/(M s)
